Assay results published in paper PMC8993905, “Functional control of a 0.5 MDa TET aminopeptidase by a flexible loop revealed by MAS NMR” (Nature Communications, 2022).

Substrate: CC(C)C[C@H](N)C(=O)Nc1ccc([N+](=O)[O-])cc1
Experiment: purified protein
Type: biochemical, Pyrococcus horikoshii
Conditions: pH 7.5 (20 mM Tris, 100 mM NaCl), 50 °C, 2.8% DMSO, 0.1-6.4 mM substrate
[1] = Δloop mutant, loop printed as shortened to a two-residue β-turn and as lacking residues 120-138
[2] = mutant printed as Δ(122,126), loop shortened by one residue on each side of H123

B1: TET2 (Pyrococcus horikoshii OT3; DEL120-138) (protein)
chain: MEVRNMVDYELLKKVVEAPGVSGYEFLGIRDVVIEEIKDYVDEVKVDKLGNVIAHKKGEGPKVMIAAHMDQIGLMVTHIEKNGFLRVAPIGGVDPKTLIAQRFKVWIDKGKFIYGVGASIFIDIGAESKEEAEDMGVKIGTVITWDGRLERLGKHRFVSIAFDDRIAVYTILEVAKQLKDAKADVYFVATVQEEVGLRGARTSAFGIEPDYGFAIDVTIAADIPGTPEHKQVTHLGKGTAIKIMDRSVICHPTIVRWLEELAKKHEIPYQLEILLGGGTDAGAIHLTKAGVPTGALSVPARYIHSNTEVVDERDVDATVELMTKALENIHELKI
notes: full length, 353 residues per subunit, pET41c in E. coli BL21(DE3), no tag mentioned (heat step, Resource Q, Superdex 200), 39 kDa subunit, 468 kDa homododecamer, two Zn per active site
[1]
  Km: 1.3 ± 0.1 mM
  kcat: 1.7 ± 1.0 s⁻¹

B2: TET2 (Pyrococcus horikoshii OT3) (protein)
chain: MEVRNMVDYELLKKVVEAPGVSGYEFLGIRDVVIEEIKDYVDEVKVDKLGNVIAHKKGEGPKVMIAAHMDQIGLMVTHIEKNGFLRVAPIGGVDPKTLIAQRFKVWIDKGKFIYGVGASVPPHIQKPEDRKKAPDWDQIFIDIGAESKEEAEDMGVKIGTVITWDGRLERLGKHRFVSIAFDDRIAVYTILEVAKQLKDAKADVYFVATVQEEVGLRGARTSAFGIEPDYGFAIDVTIAADIPGTPEHKQVTHLGKGTAIKIMDRSVICHPTIVRWLEELAKKHEIPYQLEILLGGGTDAGAIHLTKAGVPTGALSVPARYIHSNTEVVDERDVDATVELMTKALENIHELKI
notes: as for B1
  Km: 3.2 ± 0.1 mM
  kcat: 14.1 ± 1.7 s⁻¹

B3: TET2 (Pyrococcus horikoshii OT3; H123F) (protein)
chain: MEVRNMVDYELLKKVVEAPGVSGYEFLGIRDVVIEEIKDYVDEVKVDKLGNVIAHKKGEGPKVMIAAHMDQIGLMVTHIEKNGFLRVAPIGGVDPKTLIAQRFKVWIDKGKFIYGVGASVPPFIQKPEDRKKAPDWDQIFIDIGAESKEEAEDMGVKIGTVITWDGRLERLGKHRFVSIAFDDRIAVYTILEVAKQLKDAKADVYFVATVQEEVGLRGARTSAFGIEPDYGFAIDVTIAADIPGTPEHKQVTHLGKGTAIKIMDRSVICHPTIVRWLEELAKKHEIPYQLEILLGGGTDAGAIHLTKAGVPTGALSVPARYIHSNTEVVDERDVDATVELMTKALENIHELKI
notes: as for B1
  Km: 14.4 ± 0.6 mM
  kcat: 26.6 ± 4.1 s⁻¹

B4: TET2 (Pyrococcus horikoshii OT3; H123Y) (protein)
chain: MEVRNMVDYELLKKVVEAPGVSGYEFLGIRDVVIEEIKDYVDEVKVDKLGNVIAHKKGEGPKVMIAAHMDQIGLMVTHIEKNGFLRVAPIGGVDPKTLIAQRFKVWIDKGKFIYGVGASVPPYIQKPEDRKKAPDWDQIFIDIGAESKEEAEDMGVKIGTVITWDGRLERLGKHRFVSIAFDDRIAVYTILEVAKQLKDAKADVYFVATVQEEVGLRGARTSAFGIEPDYGFAIDVTIAADIPGTPEHKQVTHLGKGTAIKIMDRSVICHPTIVRWLEELAKKHEIPYQLEILLGGGTDAGAIHLTKAGVPTGALSVPARYIHSNTEVVDERDVDATVELMTKALENIHELKI
notes: as for B1
  Km: 13.8 ± 0.6 mM
  kcat: 15.7 ± 2.7 s⁻¹

B5: TET2 (Pyrococcus horikoshii OT3; H123K) (protein)
chain: MEVRNMVDYELLKKVVEAPGVSGYEFLGIRDVVIEEIKDYVDEVKVDKLGNVIAHKKGEGPKVMIAAHMDQIGLMVTHIEKNGFLRVAPIGGVDPKTLIAQRFKVWIDKGKFIYGVGASVPPKIQKPEDRKKAPDWDQIFIDIGAESKEEAEDMGVKIGTVITWDGRLERLGKHRFVSIAFDDRIAVYTILEVAKQLKDAKADVYFVATVQEEVGLRGARTSAFGIEPDYGFAIDVTIAADIPGTPEHKQVTHLGKGTAIKIMDRSVICHPTIVRWLEELAKKHEIPYQLEILLGGGTDAGAIHLTKAGVPTGALSVPARYIHSNTEVVDERDVDATVELMTKALENIHELKI
notes: as for B1
  Km: 17.0 ± 1.3 mM
  kcat: 16.9 ± 3.6 s⁻¹

B6: TET2 (Pyrococcus horikoshii OT3; DEL122-122/DEL126-126) (protein)
chain: MEVRNMVDYELLKKVVEAPGVSGYEFLGIRDVVIEEIKDYVDEVKVDKLGNVIAHKKGEGPKVMIAAHMDQIGLMVTHIEKNGFLRVAPIGGVDPKTLIAQRFKVWIDKGKFIYGVGASVPHIQPEDRKKAPDWDQIFIDIGAESKEEAEDMGVKIGTVITWDGRLERLGKHRFVSIAFDDRIAVYTILEVAKQLKDAKADVYFVATVQEEVGLRGARTSAFGIEPDYGFAIDVTIAADIPGTPEHKQVTHLGKGTAIKIMDRSVICHPTIVRWLEELAKKHEIPYQLEILLGGGTDAGAIHLTKAGVPTGALSVPARYIHSNTEVVDERDVDATVELMTKALENIHELKI
notes: as for B1
[2]
  Km: 28.5 ± 2.3 mM
  kcat: 31.5 ± 8.1 s⁻¹
